Results from PMC3343115, “Selective Blockade of Trypanosomatid Protein Synthesis by a Recombinant Antibody Anti-Trypanosoma cruzi P2β Protein” (PLoS ONE, 2012).

Key:
[1] = biological target: T1, R13 peptide (C-terminal epitope of T. cruzi P1α, P1β, P2α and P2β) (Trypanosoma cruzi); assay: SPR; competition on BIACORE 3000: TcP2β-GST immobilised by amine coupling at 0.05 pmol/mm2; scFv C5 pre-incubated 30 min with different concentrations of peptide, injected 2 min, 3 min dissociation, 30 µl/min; HBS-EP buffer pH 7.4, 150 mM NaCl; IC50 from the decrease in the initial linear kinetics; conditions: both partners purified
T1 construct: the text prints only the motif 3-EdDDmGF-9; the peptide is also in PDB 3SGE; source: synthetic peptide
T1 chain: EEEDDDMGFGLFD

[2] = biological target: T2, TcP2β-GST fusion protein (Trypanosoma cruzi ribosomal P2β protein) (Trypanosoma cruzi, strain , UniProt P26795); assay: as above; conditions: both partners purified
T2 construct: Trypanosoma cruzi ribosomal P2β protein (TcP2β), recombinant; also called recombinant TcP2β protein

[3] = biological target: T3, P015 peptide (C-terminal region of T. cruzi P0) (Trypanosoma cruzi, UniProt P26796); assay: as above; conditions: both partners purified
T3 construct: C-terminal region of the Trypanosoma cruzi ribosomal P0 protein (TcP0), called P015; aspartic acid in place of glycine 8 of R13; source: synthetic peptide
T3 chain: EEEDDDDDFGMGALF

[4] = biological target: T. cruzi ribosomal P0 protein (Trypanosoma cruzi, strain  in …, UniProt P26796); assay: cell-based or functional assay
T. cruzi ribosomal P0 protein, sequence (P26796 whole entry, looked up): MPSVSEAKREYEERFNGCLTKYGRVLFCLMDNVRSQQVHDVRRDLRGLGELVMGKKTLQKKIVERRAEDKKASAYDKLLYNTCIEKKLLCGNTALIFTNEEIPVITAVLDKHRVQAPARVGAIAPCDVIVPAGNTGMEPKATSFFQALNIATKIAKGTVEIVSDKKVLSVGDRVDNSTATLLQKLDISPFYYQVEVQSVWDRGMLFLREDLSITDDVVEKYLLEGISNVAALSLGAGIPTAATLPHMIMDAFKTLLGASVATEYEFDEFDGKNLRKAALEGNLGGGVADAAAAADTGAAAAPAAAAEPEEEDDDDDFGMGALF

T2 sequence (P26795 whole entry, the tested form may be a part): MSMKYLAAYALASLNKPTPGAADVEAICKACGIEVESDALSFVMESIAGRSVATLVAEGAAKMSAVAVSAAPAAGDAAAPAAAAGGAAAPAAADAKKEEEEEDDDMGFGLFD

B1: single chain recombinant antibody C5 (scFv C5) (scFv, V domains shown)
VH: EVQLEESGGRLVQPKGSLKLSCAASGFSFNTNAMNWVRQAPGKGLEWVARIRSKINNYSTYYADSVKDRFTISRDDSQSMLYLQMNNLKTEDTAMYYCVRGTTYWGQGTLVTVSA
VL: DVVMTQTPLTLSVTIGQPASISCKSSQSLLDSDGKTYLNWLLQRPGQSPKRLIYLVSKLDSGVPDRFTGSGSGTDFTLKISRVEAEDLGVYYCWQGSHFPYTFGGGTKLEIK
notes: VH of scFv C5, which derives from the parental monoclonal antibody 17.2; heavy chain variable domain of mAb 17.2 in PDB 3SGE (complex with R13) and 3SGD (apo); linker between the variable domains; VL of scFv C5, which derives from the parental monoclonal antibody 17.2; light chain variable domain of mAb 17.2 in PDB 3SGE (complex with R13) and 3SGD (apo); The His tag is known from detection with …
[1]
  IC50: 2370 ± 230 nM
[2]
  binding result: binds
[3]
  IC50: 22600 ± 2030 nM
[4]
  inhibition of in vitro protein synthesis ([35S]-methionine incorporation) by T. cruzi ribosomes (about 130 nM), dose-response of scFv C5, IC50: ~62.4 nM
